Measured values: US20260365734 (published 2026)
Blank lines part the entries; values can stand above or below the binder they belong to.

Columns and labels:
[1] = molecular target: T1, human PD-L1 (cell surface) (human, UniProt Q9NZQ7); assay: FACS
[2] = molecular target: T1, human PD-L1 (cell surface); assay: FACS, CHO-h-PD-L1 cells
[3] = molecular target: T1, human PD-L1 (cell surface); assay: FACS, NCI-H441 cells
[4] = molecular target: T1, human PD-L1 (cell surface); assay: FACS, T24 cells
[5] = molecular target: cynomolgus PD-L1 (cynomolgus); assay: BLI
Chain of cynomolgus PD-L1 (cynomolgus) (chain, as listed by the source): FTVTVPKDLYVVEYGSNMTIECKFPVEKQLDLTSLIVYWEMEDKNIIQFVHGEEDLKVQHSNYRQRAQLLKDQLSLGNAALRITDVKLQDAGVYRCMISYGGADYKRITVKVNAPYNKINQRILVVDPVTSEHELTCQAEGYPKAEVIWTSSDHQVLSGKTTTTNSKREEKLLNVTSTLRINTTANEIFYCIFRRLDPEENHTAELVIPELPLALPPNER

[6] = molecular target: human PD-L1 ECD (human, UniProt Q9NZQ7); assay: BLI
Chain of human PD-L1 ECD (Q9NZQ7 19-238): as the sequence (chain, as listed by the source) above, with T33A, S34A, N62S, Q68R, R82Q, L173F, A185T, I192T, L215H counted along it

[7] = molecular target: T2, mouse PD-L1 (cell surface) (mouse, UniProt Q9EP73); assay: FACS, Hepa1-6 cells
T2 sequence (Q9EP73 19-238): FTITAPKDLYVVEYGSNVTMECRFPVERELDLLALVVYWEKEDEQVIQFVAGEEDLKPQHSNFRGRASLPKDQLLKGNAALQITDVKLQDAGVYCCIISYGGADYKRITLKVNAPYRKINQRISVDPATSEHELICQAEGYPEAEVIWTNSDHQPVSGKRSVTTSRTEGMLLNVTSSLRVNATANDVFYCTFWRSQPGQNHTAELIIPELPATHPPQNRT

[8] = molecular target: T2, mouse PD-L1 (cell surface); assay: FACS, 293T m-PD-L1 cells
[9] = molecular target: T1, human PD-L1 (cell surface); assay: FACS; remark: listed apart in the source

T1 sequence (Q9NZQ7 19-238): as the sequence (chain, as listed by the source) above, with T33A, S34A, N62S, Q68R, R82Q, L173F, A185T, I192T, L215H counted along it

B1: R2-4H8 (antibody, V domains shown)
VH: EVQLVESGGGLVQPGGSLRLSCGASGIFFSGVHMGWYRQAPGKERELVALITDSGSADYVDSVKGRFTISRDNAKNTVYLQMNSLKFEDTAVYYCNARTTTIYWGQGTQVTVSS
EC50 [1]: 0.87 nM

B3: 4D2-Alpaca-NT (antibody, V domains shown)
VH: QVQLVESGGGLVQAGGSLRLSCAASGFSASDVVMAWYRQAPGKQREFVANLGASSTTRYADSVKGRFTISRDDAKNTVSLQMNSLKSEDTAVYYCNALVWTGSSYNNWGQGTQVTVSS
EC50 [2]: 0.103 nM
EC50 [3]: 0.044 nM

B4: R3-2A11 (antibody, V domains shown)
VH: QVQLVESGGDLVQPGGSLRLSCAASGIDFSDTHMGWYRQAPGKQRELVALITSGGFTDYPDSVKGRFTISRDNAKNTMYLQMNTLKLEDTAVYYCNARRTTIYWGQGTQVTVSS
EC50 [1]: 1.16 nM

B5: R2-1G10 (antibody, V domains shown)
VH: QVQLVESGGGLVQPGGSLRLSCAASGIFFSDTHMGWYRQAPGKERELVAIITSGGSTDYVDSVKGRFTISRDNAKNTVYLQMNSLKFEDTAVYYCNARRTTIYWGQGTQVTVSS
EC50 [1]: 0.63 nM

B6: R2-6D2 (antibody, V domains shown)
VH: QVQLVESGGGLVQPGGSLRLSCAASGIDFSDTHMGWYRQAPGKERELVALITSGGFTDYADSVKGRFTISRDNAKNTMYLQMNTLKFEDTAVYYCNARKTTIYWGQGTQVTVSS
EC50 [1]: 0.93 nM

B7: R2-6A10 (antibody, V domains shown)
VH: QVQLVESGGGLVQPGGSLRLSCAASGIDFSDTHMGWYRQAPGKERELVALITSGGFTDYADSVKGRFTISRDNAKNTMYLQMNTLKFEDTAVYYCNARRSTIYWGQGTQVTVSS
EC50 [1]: 0.54 nM

B8: R1-1C3 (antibody, V domains shown)
VH: EVQLVQSGGGLVQPGGSLRLSCAASGIFFSDTHMGWYRQAPGKERELVAIITSGGSTDYVDSVKGRFTISRDNAKNTVYLQMNTLKFEDTAVYYCNARRTTIYWGQGTQVTVSS
EC50 [1]: 1.69 nM

B9: R2-1A3 (antibody, V domains shown)
VH: EVQLVESGGGLVQPGGSLRLSCVASGFDFSDTHMGWYRQAPGKQRELVALITSGAFTDYADSVKGRFTISRDNAKNTVYLQMNTLKFEDTAVYYCNARRTTIYWGQGTQVTVSS
EC50 [1]: 0.88 nM

B10: R2-1G4 (antibody, V domains shown)
VH: QVQLVESGGGLVQPGGSLRLSCAASGIDFSDTHMGWYRQAPGKERELVALITSGGFTDYADSVKGRFTISRDNAKNTMYLQMNTLKFEDTAVYYCNARRTTIYWGQGTQVTVSS
EC50 [1]: 0.42 nM

B11: R2-3A5 (antibody, V domains shown)
VH: EVQLVESGGGLVQPGGSLRLSCAASGIDFSDTHMGWYRQAPGKQRELVALITSGGFTDYADSVKGRFTISRDNAKNTMYLQMNTLKLEDTAVYYCNARRTTIYWGQGTQVTVSS
EC50 [1]: 0.6 nM

B13: 4D2-hv3-NT (antibody, V domains shown)
VH: QVQLVESGGGLVKPGGSLRLSCAASGFSASDVVMAWYRQAPGKQREFVSNLGASSTTYYADSVKGRFTISRDNAKNSLYLQMNSLRAEDTAVYYCNALVWTGSSYNNWGQGTQVTVSS
EC50 [2]: 0.598 nM
EC50 [3]: 0.271 nM

B16: 4D2-hv2-NT (antibody, V domains shown)
VH: QVQLVESGGGLVKPGGSLRLSCAASGFSASDVVMAWYRQAPGKQREFVSNLGASSTTRYADSVKGRFTISRDNAKNSLYLQMNSLRAEDTAVYYCNALVWTGSSYNNWGQGTQVTVSS
EC50 [2]: 0.203 nM
EC50 [3]: 0.099 nM

B17: 3H1-hv7 (antibody, V domains shown)
VH: QVQLVESGGGVVQPGGSLRLSCAASGIDFSDTHMHWVRQAPGKQRELVAIITSGGSTDYVDSVKGRFTISRDNSKNTLYLQMNSLRAEDTAVYYCNARRSTIYWGQGTQVTVSS
EC50 [7]: 6.78 nM
EC50 [8]: 0.56 nM

B18: 3H1-2F4 (antibody, V domains shown)
VH: QVQLVESGGGVVQPGGSLRLSCAASGIDFSDLHMHWVRQAPGKQRELVAIITSGGSTDYVDSVKGRFTISRDNSKNTLYLQMNSLRAEDTAVYYCNARSSTIYWGQGTQVTVSS
EC50 [7]: 0.65 nM
EC50 [8]: 1 nM

B19: 3H1-2G3 (antibody, V domains shown)
VH: QVQLVESGGGVVQPGGSLRLSCAASGIDFSDTHMHWVRQAPGKQRELVAIITSSGSTDYVDSVKGRFTISRDNSKNTLYLQMNSLRAEDTAVYYCNARRSTILWGQGTQVTVSS
EC50 [7]: 0.31 nM
EC50 [8]: 1.57 nM

B20: 3H1-6D2 (antibody, V domains shown)
VH: QVQLVESGGGVVQPGGSLRLSCAASGIDFNDTHMHWVRQAPGKQRELVAIITSRGSTDYVDSVKGRFTISRDNSKNTLYLQMNSLRAEDTAVYYCNARRSTLYWGQGTQVTVSS
EC50 [7]: 0.51 nM
EC50 [8]: 1.29 nM

B21: 3H1-3B9 (antibody, V domains shown)
VH: QVQLVESGGGVVQPGGSLRLSCAASGIDFSDTHMHWVRQAPGKQRELVAIITSGGFTDYVDSVKGRFTISRDNSKNTLYLQMNSLRAEDTAVYYCNARTSTIYWGQGTQVTVSS
EC50 [7]: 0.3 nM
EC50 [8]: 0.97 nM

B24: 3H1-2A2 (antibody, V domains shown)
VH: QVQLVESGGGVVQPGGSLRLSCAASGIDFSDTHMHWVRQAPGKQRELVAIITSGGFTDYVDSVKGRFTISRDNSKNTLYLQMNSLRAEDTAVYYCNARRSTIYWGQGTQVTVSS
EC50 [7]: 0.31 nM
EC50 [8]: 1.42 nM

B27: 3H1-1G9 (antibody, V domains shown)
VH: QVQLVESGGGVVQPGGSLRLSCAASGIDFDDTHMHWVRQAPGKQRELVAIITSGGLTDYVDSVKGRFTISRDNSKNTLYLQMNSLRAEDTAVYYCNARTSTIYWGQGTQVTVSS
EC50 [7]: 0.55 nM
EC50 [8]: 1.01 nM

Results, then the binder that gave them:

EC50 [2]: 0.109 nM
EC50 [3]: 0.041 nM
B2: 4E2-Alpaca-NT (antibody, V domains shown)
VH: EVQLVESGGGSVQDGGSLTLSCAASGFSAGDVVMAWYRQAPGKQREFVANIAASSTTRYTDSVKGRFTISRDNAKNTVYLQMNSLKSEDTAVYYCNALVWTGSSYNNWGQGTQVTVSS

EC50 [4]: 0.083 nM
Kd [5]: 4.34 nM
Kd [6]: 8.12 nM
B12: 5C12-hv7-NT (antibody, V domains shown)
VH: QVQLVESGGGLVKPGGSLRLSCAASGFSASDVVMAWYRQAPGKQREFVSNIAARGSTDYADSVKGRFTISRDNAKNSLYLQMNSLRAEDTAVYYCNALVWTGSSYNNWGQGTQVTVSS

EC50 [2]: 0.171 nM
EC50 [3]: 0.112 nM
B14: 4D2-hv4-NT (antibody, V domains shown)
VH: QVQLVESGGGLVKPGGSLRLSCAASGFSASDVVMAWYRQAPGKQREFVSNLGASSTTNYADSVKGRFTISRDNAKNSLYLQMNSLRAEDTAVYYCNALVWTGSSYNNWGQGTQVTVSS

EC50 [2]: 0.167 nM
EC50 [3]: 0.055 nM
B15: 4E2-hv3-NT (antibody, V domains shown)
VH: EVQLVESGGGLVKPGGSLRLSCAASGFSAGDVVMAWYRQAPGKQREFVSNIAASSTTYYADSVKGRFTISRDNAKNSLYLQMNSLRAEDTAVYYCNALVWTGSSYNNWGQGTQVTVSS

EC50 [9]: 0.73 nM
B22: 5F8-3A3 (antibody, V domains shown)
VH: EVQLVESGGGLVQPGGSLRLSCAASGFDFSDTHMSWVRQAPGKERELVAIITGGGSTDYVDSVKGRFTISRDNSKNTLYLQMNSLRAEDTAVYYCLARRTTIYWGQGTQVTVSS

EC50 [9]: 0.63 nM
B23: 5F8-4B12 (antibody, V domains shown)
VH: EVQLVESGGGLVQPGGSLRLSCAASGFDFPDTHMSWVRQAPGKERELVAIITSGGFTDYVDSVKGRFTISRDNSKNTLYLQMNSLRAEDTAVYYCRARRTTIYWGQGTQVTVSS

EC50 [9]: 0.52 nM
B25: 5F8-6D6 (antibody, V domains shown)
VH: EVQLVESGGGLVQPGGSLRLSCAASGFDFSDTAMSWVRQAPGKERELVAIITSGGSVDYVDSVKGRFTISRDNSKNTLYLQMNSLRAEDTAVYYCRARRTTIYWGQGTQVTVSS

EC50 [9]: 0.51 nM
B26: 5F8-7D5 (antibody, V domains shown)
VH: EVQLVESGGGLVQPGGSLRLSCAASGFDFEDTHMSWVRQAPGKERELVAIITSGCSTDYVDSVKGRFTISRDNSKNTLYLQMNSLRAEDTAVYYCNARRATIYWGQGTQVTVSS

EC50 [9]: 0.49 nM
B28: 5F8-8D4 (antibody, V domains shown)
VH: EVQLVESGGGLVQPGGSLRLSCAASGFDFSDTFMSWVRQAPGKERELVAIITSGGSTDYVDSVKGRFTISRDNSKNTLYLQMNSLRAEDTAVYYCNARRTTIYWGQGTQVTVSS

EC50 [9]: 0.57 nM
B29: 5F8-8E3 (antibody, V domains shown)
VH: EVQLVESGGGLVQPGGSLRLSCAASGFDFSDTHMSWVRQAPGKERELVAIITSGGSTDYVDSVKGRFTISRDNSKNTLYLQMNSLRAEDTAVYYCNARLTTIYWGQGTQVTVSS

EC50 [9]: 0.51 nM
B30: 5F8-8H3 (antibody, V domains shown)
VH: EVQLVESGGGLVQPGGSLRLSCAASGFDFSMTHMSWVRQAPGKERELVAIITSGGKTDYVDSVKGRFTISRDNSKNTLYLQMNSLRAEDTAVYYCNARRATIYWGQGTQVTVSS
